Legend:
[1] = biological target: HHV-8 gH/gL ectodomain complex (insect cell, for crystallization) (human herpesvirus 8 (HHV-8)) (UniProt F5HAK9); experiment: SEC-MALS
[2] = biological target: T1, EphA2 ectodomain (res. 27 to 534), wild type (human, UniProt P29317 27-534); experiment: BLI; details: both partners purified
T1 construct: also called WT EphA2 ectodomain

[3] = biological target: EphA2 LBD (res. 27 to 202), wild type (human, UniProt P29317 27-202); experiment: BLI; details: both partners purified
crystal structure = biological target: the molecule itself; experiment: crystal structure

Sequence of HHV-8 gH/gL ectodomain complex (insect cell, for crystallization) (human herpesvirus 8 (HHV-8)) (F5HAK9 whole entry, looked up, the tested form may be a part, one chain of several): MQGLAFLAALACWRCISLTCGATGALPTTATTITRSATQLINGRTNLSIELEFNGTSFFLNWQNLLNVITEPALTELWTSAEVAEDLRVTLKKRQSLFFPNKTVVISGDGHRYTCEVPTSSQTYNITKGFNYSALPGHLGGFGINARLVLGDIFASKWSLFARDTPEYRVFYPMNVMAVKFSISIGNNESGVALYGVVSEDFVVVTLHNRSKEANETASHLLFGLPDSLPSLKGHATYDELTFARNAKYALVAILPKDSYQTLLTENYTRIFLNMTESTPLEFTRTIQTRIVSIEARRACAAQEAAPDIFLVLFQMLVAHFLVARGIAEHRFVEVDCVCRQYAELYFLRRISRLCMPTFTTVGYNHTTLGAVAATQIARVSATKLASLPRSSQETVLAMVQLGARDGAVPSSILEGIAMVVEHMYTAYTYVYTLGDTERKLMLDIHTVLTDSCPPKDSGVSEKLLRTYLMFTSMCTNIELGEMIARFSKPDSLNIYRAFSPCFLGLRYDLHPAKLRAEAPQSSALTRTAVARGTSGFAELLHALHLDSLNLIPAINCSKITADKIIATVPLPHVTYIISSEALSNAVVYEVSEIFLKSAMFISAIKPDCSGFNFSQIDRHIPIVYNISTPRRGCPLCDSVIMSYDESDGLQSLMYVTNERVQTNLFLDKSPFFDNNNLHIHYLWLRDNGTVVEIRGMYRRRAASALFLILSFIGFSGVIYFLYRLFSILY
T1 sequence (P29317 27-534): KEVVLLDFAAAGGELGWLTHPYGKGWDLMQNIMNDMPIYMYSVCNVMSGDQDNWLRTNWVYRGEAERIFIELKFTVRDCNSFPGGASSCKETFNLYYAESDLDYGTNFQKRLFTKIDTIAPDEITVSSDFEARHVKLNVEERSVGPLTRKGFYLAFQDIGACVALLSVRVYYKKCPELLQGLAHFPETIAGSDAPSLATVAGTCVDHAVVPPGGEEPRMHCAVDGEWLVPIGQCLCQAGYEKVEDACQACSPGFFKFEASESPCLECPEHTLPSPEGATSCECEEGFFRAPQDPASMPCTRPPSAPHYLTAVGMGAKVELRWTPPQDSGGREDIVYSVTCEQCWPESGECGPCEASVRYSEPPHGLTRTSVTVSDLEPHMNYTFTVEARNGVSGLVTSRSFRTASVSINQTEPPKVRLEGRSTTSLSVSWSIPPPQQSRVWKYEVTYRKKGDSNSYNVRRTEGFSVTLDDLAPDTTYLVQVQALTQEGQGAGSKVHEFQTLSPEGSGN

Molecule: EphA2 ligand-binding domain (residues 23 to 202), insect cell (from UniProt P29317 23-202) (domain or fragment)
- stoichiometry N [1]: 1

Molecule: EphA2 ectodomain (res. 27 to 534), wild type (from UniProt P29317 27-534) (domain or fragment)
- stoichiometry N [1]: 1

B1: HHV-8 gH^his/gL^st wild type (mammalian cells) (complex)
chain 1: LPTTATTITRSATQLINGRTNLSIELEFNGTSFFLNWQNLLNVITEPALTELWTSAEVAEDLRVTLKKRQSLFFPNKTVVISGDGHRYTCEVPTSSQTYNITKGFNYSALPGHLGGFGINARLVLGDIFASKWSLFARDTPEYRVFYPMNVMAVKFSISIGNNESGVALYGVVSEDFVVVTLHNRSKEANETASHLLFGLPDSLPSLKGHATYDELTFARNAKYALVAILPKDSYQTLLTENYTRIFLNMTESTPLEFTRTIQTRIVSIEARRACAAQEAAPDIFLVLFQMLVAHFLVARGIAEHRFVEVDCVCRQYAELYFLRRISRLCMPTFTTVGYNHTTLGAVAATQIARVSATKLASLPRSSQETVLAMVQLGARDGAVPSSILEGIAMVVEHMYTAYTYVYTLGDTERKLMLDIHTVLTDSCPPKDSGVSEKLLRTYLMFTSMCTNIELGEMIARFSKPDSLNIYRAFSPCFLGLRYDLHPAKLRAEAPQSSALTRTAVARGTSGFAELLHALHLDSLNLIPAINCSKITADKIIATVPLPHVTYIISSEALSNAVVYEVSEIFLKSAMFISAIKPDCSGFNFSQIDRHIPIVYNISTPRRGCPLCDSVIMSYDESDGLQSLMYVTNERVQTNLFLDKSPFFDNNNLHIHYLWLRDNGTVVEIRGMYRRRAAS
chain 2: YVALPCCAIQASAASTLPLFFAVHSIHFADPNHCNGVCIAKLRSKTGDITVETCVNGFNLRSFLVAVVRRLGSWASQENLRLLWYLQRSLTAYTVGFNATTADSSIHNVNIIIISVGKAMNRTGSVSGSQTRAKSSSRRAHAGQKGK
- Kd [2]: < 1 nM
- Kd [3]: < 1 nM

B2: EphA2 ligand-binding domain (residues 23 to 202), insect cell (domain or fragment, human, UniProt P29317 23-202, looked up)
chain: AAQGKEVVLLDFAAAGGELGWLTHPYGKGWDLMQNIMNDMPIYMYSVCNVMSGDQDNWLRTNWVYRGEAERIFIELKFTVRDCNSFPGGASSCKETFNLYYAESDLDYGTNFQKRLFTKIDTIAPDEITVSSDFEARHVKLNVEERSVGPLTRKGFYLAFQDIGACVALLSVRVYYKKCP
notes: also called EphA2 LBD; LBD
- binding result (crystal structure): binds

— article PMC8454987 (PLoS Biology, 2021)
